Experimental data: paper PMC6643034, “A knottin scaffold directs the CXC-chemokine–binding specificity of tick evasins” (The Journal of Biological Chemistry, 2019)

B3: CXCL11 (ligand, human, UniProt O14625 22-94, looked up)
chain: FPMFKRGRCLCIGPGVKAVKVADIEKASIMYPSNNCDKIEVIITLKENKGQRCLNPKSKQARLIIKKVERKNF
notes: human CXCL11
B4: CXCL13 (ligand, human, UniProt O43927 23-109, looked up)
chain: VLEVYYTSLRCRCVQESSVFIPRRFIDRIQILPRGNGCPRKEIIVWKKNKSIVCVDPQAEWIQRMMEVLRKRSSSTLPVPVFKRKIP
notes: human CXCL13

How the values were obtained:
Conditions in all cases: both partners purified
CXCL10 [1] = biological target: T1, CXCL10 (human, UniProt P02778 22-98); experiment: BLI; cross-binding screen on OctetRed; evasin held on a nickel-coated biosensor through its C-terminal His tag; each human chemokine at 300 nM
T1 construct: human CXCL10

CXCL1 [2] = biological target: T2, CXCL1 (human, UniProt P09341 35-107); experiment: as above
T2 construct: human CXCL1

CXCL11 [3] = biological target: B3; experiment: as above
CXCL13 = biological target: B4; experiment: as above
CXCL3 [4] = biological target: T3, CXCL3 (human, UniProt P19876 35-107); experiment: as above
T3 construct: human CXCL3

CXCL2 [5] = biological target: T4, CXCL2 (human, UniProt P19875 35-107); experiment: as above
T4 construct: human CXCL2

P1080_IXORI = biological target: T5, P1080_IXORI (Ixodes ricinus, UniProt A0A090XBL6 20-118); experiment: as above
T5 construct: evasin P1080, mature peptide, 99 residues; N-terminal DGG expected after signal peptide cleavage; glycosylated
T5 sequence (A0A090XBL6 20-118): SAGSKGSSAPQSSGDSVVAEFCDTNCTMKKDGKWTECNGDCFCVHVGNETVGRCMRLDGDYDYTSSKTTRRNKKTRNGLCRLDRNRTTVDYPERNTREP

CXCL10 [6] = biological target: T1, CXCL10; experiment: as above; remark: listed apart in the source
CXCL1 [7] = biological target: T2, CXCL1; experiment: as above; remark: listed apart in the source
CXCL11 [8] = biological target: B3; experiment: as above; remark: listed apart in the source
CXCL3 [9] = biological target: T3, CXCL3; experiment: as above; remark: listed apart in the source
CXCL2 [10] = biological target: T4, CXCL2; experiment: as above; remark: listed apart in the source
CXCL1 [11] = biological target: T2, CXCL1; experiment: as above; remark: listed apart in the source
CXCL3 [12] = biological target: T3, CXCL3; experiment: as above; remark: listed apart in the source
CXCL2 [13] = biological target: T4, CXCL2; experiment: as above; remark: listed apart in the source
CXCL2 [14] = biological target: T6, CXCL2 (human, UniProt P19875 35-107); experiment: BLI; OctetRed; parental evasins and domain-swap hybrids held by the His tag; titration with chemokine from 600 to 0.4 nM; fit criterion R2 ≥ 0.89, five (in four cases four) concentrations
T6 construct: human CXCL2 of the panel of human chemokines used for biolayer interferometry

CXCL3 [15] = biological target: T7, CXCL3 (human, UniProt P19876 35-107); experiment: as above
T7 construct: human CXCL3 of the panel of human chemokines used for biolayer interferometry

Measured: binding result

B1: P1100_IXORI (natural protein)
chain: GSKGSSASQSSDNSVVAKFCDTNCTINEGGKWTECKGGCFCVHVGNETVGRCMKLDGDYDYPSPKPEE
notes: evasin P1100, mature peptide, 68 residues; N-terminal DGG expected after signal peptide cleavage; glycosylated
binds: CXCL10 [1] | CXCL1 [2] | CXCL11 [3] | CXCL13 | CXCL3 [4] | CXCL2 [5]

B2: P942_IXORI (natural protein)
chain: NQLSGPQSSANSNEAVFCDTNCTQGTDEAWSGCRGDCFCVYVGNSTEGRCMMLSGDFDYSTPGAED
notes: evasin P942, mature peptide, 66 residues; N-terminal DGG expected after signal peptide cleavage; glycosylated
binds: CXCL10 [1] | CXCL1 [2] | CXCL11 [3] | CXCL13 | CXCL3 [4] | CXCL2 [5]

B3
binds: P1080_IXORI

B4
binds: P1080_IXORI

B5: P1126_AMBCA (natural protein)
chain: KPQILQRTDKSTDSEWDPQTCPETCIPSKNITCSDGCVCVKLGEEEEGTCFNMTGVDWLGSPSDD
notes: evasin P1126, mature peptide, 65 residues; N-terminal DGG expected after signal peptide cleavage; glycosylated
binds: CXCL10 [6] | CXCL1 [7] | CXCL11 [8] | CXCL3 [9] | CXCL2 [10]

B6: EVA3_RHISA (natural protein)
chain: LVSTIESRTSGDGADNFDVVSCNKNCTSGQNECPEGCFCGLLGQNKKGHCYKIIGNLSGEPPVVRR
notes: N-terminal DGG expected after signal peptide cleavage; glycosylated; also called evasin 3; Evasin-3
binds: CXCL1 [11] | CXCL3 [12] | CXCL2 [13]

B7: P1086_IXORI (natural protein)
chain: GSKGQRASQVSETSITAEFCDTSCTQGTDKTWSGCSGDCFCVHVGNDTEGRCMRWDGDYPSAEEEE
notes: evasin P1086, mature peptide, 66 residues; N-terminal DGG expected after signal peptide cleavage; glycosylated
binds: CXCL10 [1] | CXCL1 [2] | CXCL13 | CXCL3 [4] | CXCL2 [5]

B8: P1078_IXORI (natural protein)
chain: GSKGSSAQQSSHDSIKAEFCETNCTMKTGGKWTQCHGGCFCVHVGNETVGRCIKLDGDYDYPSSKHEE
notes: evasin P1078, mature peptide, 68 residues; N-terminal DGG expected after signal peptide cleavage; glycosylated
binds: CXCL1 [2] | CXCL11 [3] | CXCL13 | CXCL3 [4] | CXCL2 [5]

B9: Evasin 3 (EVA3) (natural protein)
chain: DGGLVSTIESRTSGDGADNFDVVSCNKNCTSGQNECPEGCFCGLLGQNKKGHCYKIIGNLSGEPPVVRR
modifications: also: glycosylated
notes: residues expected at the N terminus after cleavage of the Igκ signal peptide (SignalP 3.0); Evasin-3 (EVA3_RHISA), Rhipicephalus sanguineus, mature peptide; class I founder; also called EVA3_RHISA; WT EVA3; source: HEK293F, transiently transfected, secreted; purified (nickel IMAC, SEC)
binds: CXCL2 [14] | CXCL3 [15]

B10: P1142_AMBCA (natural protein)
chain: KPQILQRTDHSTDSDWDPQMCPETCNPSKNISCSSECLCVTLGGGDETGTCFNMSGVDWLGHAQASDGHNDG
notes: evasin P1142, mature peptide, 72 residues; N-terminal DGG expected after signal peptide cleavage; glycosylated
binds: CXCL10 [6] | CXCL1 [7] | CXCL11 [8] | CXCL3 [9] | CXCL2 [10]
